Several values for one entry are separate records, joined by “and”; a condition that tells them apart may be missing. Equal entries are not always repeated.
Key:
Settings in all cases: both partners purified
[1] = target: T1, LC/B1 (light chain protease domain of BoNT/B1), as used in the ELISAs of Table 2 (Clostridium botulinum, BoNT/B1, UniProt P10844); test: ELISA
[2] = target: T1, LC/B1 (light chain protease domain of …); test: ELISA; dilution ELISA of VHH on LC/B coated to Nunc plastic
[3] = target: LC/A2, strep-tag fusion protein (Clostridium botulinum, BoNT/A2 (strain …, UniProt Q45894, strain)); test: ELISA
[4] = target: LC/A1 (light chain protease domain of BoNT/A1), as used in the ELISAs of Table 1 (Clostridium botulinum, BoNT/A1, UniProt P0DPI0); test: ELISA

B1: BLc-B10 (VHH)
VHH: QLQLVESGGGMVQPGGSLRLSCAASGFTFSTYDMSWVRQAPGKGPEWVSIINAGGGSTYYAASVKGRFAISRDNAKNTLYLQMNNLKPEDTALYYCARVASYYCRGYVCSPPEFDYWGQGTQVTVSS
notes: source: pET-32 vector, thioredoxin fusion, purified
[1]
  EC50: 5000 pM and 10000 pM
[2]
  EC50: 300 pM

B2: JPU-A5 (VHH)
VHH: QVQLVETGGGLVQAGGSLRLSCTASGADFSFYAMGWYRQTPGNSRELVAVMNLNGVISYGDSARGRFDISRDGTKNIVFLQMNSLKPEDTGVYYCNGMRLYTRGSVRHPESWGQGIQVTVSS
notes: form of the ELISAs; source: pET-32 vector, thioredoxin fusion, purified
[3]
  binding result: binds

B3: JPU-C10 (VHH)
VHH: QLQLVESGGGLVQPGGSLRLSCAASGNIFSIYYMGWYRQAPGKQREMVAIINSNGITNYGDFVKGRFTISRDNAENSAYLQMNNLTPEDTAVYYCNAGKLRRTTGWGLDDYWGQGTQVTVSS
notes: as for B2
[3]
  binding result: binds

B4: JND-E9 (VHH)
VHH: QVQLVETGGGLVQAGDSLRLSCAASGRTFNYYAMAWFRQAPGKEREFVAFINWSGDSTYYAGSVKGRFTISRDNAKNTVYLQMNNLKPEDTAVYSCAAEFGTFSYLQGDDYSYWGQGTQVTVSS
notes: as for B1
[1]
  EC50: 1000 pM and 500 pM

B5: JLO-G7 (VHH)
VHH: QVQLVESGGGLVQAGGSLRLSCAASGFPFGSYYMSWVRQAPGKGPEWVSDISNGGIITRYSDSVKGRFTISRDNAKNILYLQMNSLKPEDTALYFCATGTGRDWSREYRGQGTQVTVSS
notes: as for B1
[1]
  EC50: 500 pM

B6: JND-E5 (VHH)
VHH: QVQLVESGGLVQPGGSLRLSCAASGFTLDYYGIGWVRQAPGKEREEVSCITSGGLTNYPDSVKGRFTISRDNAKNTVYLQMNSLKPEDTAVYYCAIDRVGVCAMEDFGSWGQGTQVTVSS
notes: as for B1
[1]
  EC50: 5000 pM and 2000 pM

B7: ciA-D1 (VHH)
VHH: QVQLVESGGGLVQPGGSLRLSCATSGFTLEYYAIGWFRQAPGKGREGVACMNSSGGGTNYADSVKGRFTISRDNAKKMVYLQMNSLKSEDTAVYYCVVDDFRCGSRWAAYLRSSWGQGTQVTVSS
notes: as for B1
[4]
  EC50: 1000 pM and 400 pM

B8: JPU-G11 (VHH)
VHH: QLQLVETGGGLVQPGGSLRLACVASESVFEMYTVAWYRQAPGKQRELVAGITDEGRTNYADFVKGRFTISRDNSKKTVHLQMDNLNPEDTAVYYCKLEHDLGYYDYWGQGTQVTVSS
notes: as for B2
[4]
  EC50: 1000 pM and 500 pM

B9: JND-B4 (VHH)
VHH: QVQLVETGGGLVQPGGSLRLSCVASGFTLDSYAIGWFRQAPGKEREGVSCMSSGDGSTYYTNSVKGRFTISRDNAQNTVYLQMNSLKPEDTAVYYCAADGFDYCSAYVPGRGMNYSGKGTLVTVSS
notes: as for B1
[1]
  EC50: 800 pM and 500 pM

Source: PMC8769338 (PLoS Pathogens, 2022)
